Data published in patent publication US20020004485A1.
Blank lines part the entries; values can stand above or below the binder they belong to. Square brackets hold non-standard residues; d marks the D form. Ends that are not written are not given here. * marks the point of attachment. Benzoyl(3-OMe) = COc1cccc(C(=O)*)c1; Benzoyl(4-OMe) = COc1ccc(C(=O)*)cc1

Key:
[1] = molecular target: MC receptor endogenous to Xenopus laevis melanophores (Xenopus laevis); assay: cell-based or functional assay
[2] = molecular target: MC receptor endogenous to Xenopus laevis melanophores (Xenopus laevis); assay: Schild plot; antagonism of α-MSH pigment dispersion in Xenopus melanophores (functional)
[3] = molecular target: MC receptor endogenous to Xenopus laevis melanophores (Xenopus laevis); assay: Schild plot regression analysis, frog melanophores (functional)
[4] = molecular target: MC receptor endogenous to Xenopus laevis melanophores (Xenopus laevis); assay: Schild regression; suppression of α-MSH-induced pigment dispersion in Xenopus melanophores (functional)

B1: human agouti-related protein fragment ARP-(83-132)-NH2 (peptide)
peptide: SSRRCVRLHESCLGQQVPCCDPCATCYCRFFNAFCYCRKLGTAMNPCSRT-NH2
modifications: disulfide (positions not given here); not fully specified (bridges); also: five disulfides among the 10 Cys, arrangement undetermined
EC50 of α-MSH in frog melanophores in the presence of 30 nM ARP fragment [1]: 19 nM
Ki [3]: 0.21 nM
Ki [4]: 0.7 nM

B2: SQW-13 (peptide)
peptide: {Benzoyl(3-OMe)}-RRIRPKA-NH2
SMILES: CC[C@H](C)[C@H](NC(=O)[C@H](CCCNC(=N)N)NC(=O)[C@H](CCCNC(=N)N)NC(=O)c1cccc(OC)c1)C(=O)N[C@@H](CCCNC(=N)N)C(=O)N1CCC[C@H]1C(=O)N[C@@H](CCCCN)C(=O)N[C@@H](C)C(N)=O
MCR IC50 nM: antagonism of α-MSH (600 pM) darkening of frog melanophores [1]: 62 nM

More lines, now with the values ahead:

MCR IC50 nM: antagonism of α-MSH (600 pM) darkening of frog melanophores [1]: 29 nM
Ki [2]: 27 nM
pKi [2]: 7.57
Binder: {Benzoyl(4-OMe)}-RRIRPK[dL]-NH2 [p-anisoyl-[D-Leu^12] dynorphin A(6-12)-NH2]

MCR IC50 nM: antagonism of α-MSH (600 pM) darkening of frog melanophores [1]: 1600 nM
B3: SQW-12 (peptide)
peptide: {Benzoyl(3-OMe)}-RRIRPAL-NH2
SMILES: CC[C@H](C)[C@H](NC(=O)[C@H](CCCNC(=N)N)NC(=O)[C@H](CCCNC(=N)N)NC(=O)c1cccc(OC)c1)C(=O)N[C@@H](CCCNC(=N)N)C(=O)N1CCC[C@H]1C(=O)N[C@@H](C)C(=O)N[C@@H](CC(C)C)C(N)=O
